B1: EcXA150: antisense clone insert to E. coli spoT (nucleic acid, listed as Escherichia coli)
antisense: CCGGGGCTGACGTGGGCGATAATCGGGTCGCCAGGAATAGGGCGGCAGCATTTCGCAAAGGTGATCAGCACGCCATCGGCACCTTTAATGGGCAGATGTCCGTGGCTTTGGGTTGCCGGTGGAATGGAGGCGTCCCCATGTTGCAGATTTTTCGCGACCACCACGCTCATTGCGTTACCA
B2: EcXA148: antisense clone insert to E. coli rffM (nucleic acid, listed as Escherichia coli)
antisense: GCAAATGTTTTCGTAATTCAGGAGAAATGGCAAATAAAGCATTAAAAATTTGAATGCTTTGTGTAATAAAAAAGCAGACAGGCGACGGAGTGACCACTCCGTCGCTTTACAAAGAGAGGAAAATCATAGGTTGCCGGTGTAGTGCCAGCGTAAATAACGCA
B3: EcXA157: antisense clone insert to E. coli rpsC, rplV (nucleic acid, listed as Escherichia coli)
antisense: TCCTTAGTCAGGTACTGACGTACTTTAAAATCGCTGTCCAGGTTGTCAGCGAATTCTTTGGTGTTCGCAAACCAGGTAGAGTTCCATGGTTTTACAATACCCAGGCGAATACCATTAGGATGTACTTTCTGACCCATTGCTAGTCTCCAGAGTCTCAGCGATCGGACACAACCACAGTGATGTGGCTGGTG
B4: EcXA156: antisense clone insert to E. coli yihN (nucleic acid, listed as Escherichia coli)
antisense: AAATAGACCGGCATACTTTCGTGCGGCAGCATAATCAACAGTACGAGCGCAGCGGTACTAATGATAAAGGTGTAGCATAGATATTTACTTGGCGATTTCAGGATCTTATCTGAAATCATGCCACCAATCGGTCCACCAATCATTTTCAGACAGT
B5: EcXA154: antisense clone insert to E. coli b1983 (nucleic acid, listed as Escherichia coli)
antisense: TTCTGTAATCAGAAAAAGAAGAACTGGAATTTTAATAAATATTATTTCTCTGGGAACGGGGGGGTATAATCAATATGACGAGTTGAATATTATATTTTTTATAAGAATTATATGAGATTAAAGAAATCTGCCGTAAAGACAGATTTCTTTAAAAGATAATTAGAGATTTGCGACGTTATGATAAACTTTTTGTACATCGTCGTCATCTTCAAG
B6: EcXA142: antisense clone insert to E. coli rpmJ, rpsM (nucleic acid, listed as Escherichia coli)
antisense: TGCGATTACGGCATGCTTATGATCAGGAATGTTAATGCCTGCTATACGGGCCACTATGCACTCCTACTATTTAATATGTACGTTCCATGCTGAAAAGCCCGTTTTCAGGATACTCAAATGGAAACGCACAGACATACAAAAGATTGGCTGGCTAATCTAGCCAGCTCAACCCAACTTTGCAAGAAAAATATGCGAAAAAATCAGCCTTGGCGCTGTTTATGCTTCGGCTCGGCACTGCAAATCACACGGATGACA
B7: EcXA152: antisense clone insert to E. coli bcr (nucleic acid, listed as Escherichia coli)
antisense: AGCTGATCGATGGTGTTTGCCAACGCACACGCCACCGCGGCGGCGGCAAACACCANCGTACCGCCGAGCACCACCGGCTTACGCCCGAAGCTGTCTGCCATCGGCCCGTAGATTAACTGCCCCAACGCAAAGCCCAGAATATAAGTACTGAGGGTCATCTGCGTACTGCCCGNCGGTACGCCAAACTGCGCTGAAATTACCGGTAGCGCGGGCAGATACATATCAATCGACAGCGGCATCAACATGGCCAGCAGGCCAAGGATAAAAACAATAGCAAACGACGAATGCTGTCGGGTGGTC
modifications: misc_feature (1)...(300): n = A,T,C or G
notes: antisense clone insert to E. coli bcr
B8: EcXA143: antisense clone insert to E. coli b2846 (nucleic acid, listed as Escherichia coli)
antisense: AACGTAAAACTTTACGTAAATTAACATGGTTAACATTTATGCCACTATTGTTTGTAAATTCATATTTCGTAATGCTTCTGAATTTTTCGTGTGATGGTTTTAAATACTATGGTGTTTACTCTTGAGGGGACGGCCTATTTATAAAATACGGACATTTCAATAAATGCCCGTATAAACAGAGTATGATTCTGGCTGGTCGTTGAGTATCAATGTTGGACCGAATGTGAACGAATAAATAATTCGTTTATTTTACCACCCATTCTCTTTTCGATTCGTTGCTTGTACGCGTAGATGCTACGGATATCCATATCCAGAACTTCAGCAATCTGATATGGATTATAACCAGAAACCATATACCCCATTATGGTGAATTCCATCTGAGTTAATGT
B9: EcXA145: antisense clone insert to E. coli thyA (nucleic acid, listed as Escherichia coli)
antisense: TCGAAGAATTTAACGGAGGGTAAAAAAACCGACGCACACTGGCGTCGGCTCTGGCAGGATGTTTCGTAATTAGATAGCCACCGGCGCTTTAATGCCCGGATGCGGATCGTAGCCTTCAATCTCAAAGTCTTCGAAACGGTAGTCGAAGATGGATTCGGGTTTACGTTTGATAATCAACTTCGGC
B10: EcXA151: antisense clone insert to E. coli dctA (nucleic acid, listed as Escherichia coli)
antisense: TGTCGAGCATACGCGGCAGCGCCGACTCGGAAGATGAAGTCCCCAGTACAATCAGCAGTTCTTCACGGATGTAGCGGATAAATTTGAAGATACTGAAACCAGTCGCTTTAGCGATTGAACCCAATACCAGCACCACAAACAGGATACAGGTAATGTAGAAACAGATAATCAGCTGCCCCAGTTGCACCAGTGTGCCGACGCCGTATTTACCGATGGTAAACGCCATTGCCCCGAACGCACCAATAGGTGCCAGA
B11: EcXA147: antisense clone insert to E. coli b1111 (nucleic acid, listed as Escherichia coli)
antisense: TAAATTCCGCGTATAGCGTGGGCGCTTTGGCTCCGGTCGCTTCGACGAGGTCCGCAAGAGAAGTCGCTTCATAACCGTGTTGCCAGAACAATTTCATGGCCTTATCAAGCGCGGCATCCCTGTCGAACACTTTTGGGCGGCCACGGCTTTTTTTTACACATTG
B12: EcXA153: antisense clone insert to E. coli yjbI (nucleic acid, listed as Escherichia coli)
antisense: CAACATCTCATGTCTGGATTTGTAGATATACGTGGAATTCCAATTGGTATCTTTTGTAGGATTCAACATATCATGTAAGCGCTGGGAGCTTACCACCATAACTGGCCCATCATCGACTGAGGAGAACAGGATAAAGATATTATCGTTTCGTGTTAATTCATTCGTGTTAAAGGTTCTTAAATTATCTTCAGTTTCTATAAATATAGG
B13: EcXA146: antisense clone insert to E. coli pstB (nucleic acid, listed as Escherichia coli)
antisense: GTAGAAGTTCAAATTACGAACCTGAATTTTACTCGGGGCAGTTTCAACCATACTCATTGCAATCTTTTCCTCATCGTGCCTGATGCACTTCGCTAATCAGGCTTACCGTAGGCCGGATCAGG

System: Klebsiella pneumoniae
Assay: Growth inhibition by induced E. coli antisense RNA in Klebsiella pneumoniae
Type: cell-based
Parameters: key: +: a positive in Table V below means that at least 10 fold more cells were required to observe a colony on the induced plate than on the non-induced plate; −: If there was no effect of antisense RNA expression in a microorganism, the clone is minus in Table V below
Settings: antisense RNA expression induced with IPTG, serial dilution plating
Procedure: To study the effects of transcriptional induction in liquid medium, growth curves were carried out by back diluting cultures 1:200 into fresh media with or without 1 mM IPTG and measuring the OD450 every 30 minutes (min). To study the effects of transcriptional induction on solid medium, 10^2, 10^3, 10^4, 10^5, 10^6, 10^7 and 10^8 fold dilutions of overnight cultures were prepared. Aliquots of from 0.5 to 3 μl of these dilutions were spotted on selective agar plates with or without 1 mM IPTG. After overnight incubation, the plates were compared to assess the sensitivity of the clones to IPTG.
Molecule No. EcXA190, encoding a portion of the b3052 gene of Escherichia coli, was either transformed directly into Enterobacter cloacae, Salmonella typhimurium and/or Klebsiella pneumoniae or subcloned into an expression vector functional in these species and the subclones transformed into these organisms. Suitable expression vectors are well known in the art. These expression vectors were introduced into Enterobacter cloacae, Salmonella typhimurium and/or Klebsiella pneumoniae cells that were then assayed for growth inhibition according to the method of Example 1. After growth in liquid culture, cells were plated at various serial dilutions and a score determined by calculating the log difference in growth for INDUCED vs. UNINDUCED antisense RNA expression as determined by the maximum 10 fold dilution at which a colony was observed. If there was no effect of antisense RNA expression in one organism, the clone is given a score of zero “0” in that organism. In contrast, a score of “8” means that 10^8 times more cells were required to observe a colony formed on the induced state than in the non-induced state under the conditions used and in that organism.
In addition, the above methods were validated using other antisense nucleic acids which inhibit the growth of E. coli which were identified using methods similar to those described above. Expression vectors which inhibited growth of E. coli upon induction of antisense RNA expression with IPTG were transformed directly into Enterobacter cloacae, Klebsiella pneumonia or Salmonella typhimurium. The transformed cells were then assayed for growth inhibition according to the method of Example 1. After growth in liquid culture, cells were plated at various serial dilutions and a score determined by calculating the log difference in growth for INDUCED vs. UNINDUCED antisense RNA expression as determined by the maximum 10 fold dilution at which a colony was observed. If there was no effect of antisense RNA expression in a microorganism, the clone is minus in Table V below. In contrast, a positive in Table V below means that at least 10 fold more cells were required to observe a colony on the induced plate than on the non-induced plate under the conditions used and in that microorganism.

Molecule	Sensitivity of K. pneumoniae to antisense nucleic acid (growth inhibition, induced vs. uninduced)
B1	−
B2	−
B3	−
B4	−
B5	−
B6	−
B7	−
B8	−
B9	−
B10	−
B11	−
B12	−
B13	−

From US20020022718A1, “Genes identified as required for proliferation of E. coli” (priority 1999, published 2002)
